Source: patent US20240301385, “DNA MODIFYING ENZYMES AND ACTIVE FRAGMENTS AND VARIANTS THEREOF AND METHODS OF USE” (LIFEEDIT THERAPEUTICS, INC., published 2024)

T1: APG30127-L32-nAPG07433.1 (synthetic)
T1 chain: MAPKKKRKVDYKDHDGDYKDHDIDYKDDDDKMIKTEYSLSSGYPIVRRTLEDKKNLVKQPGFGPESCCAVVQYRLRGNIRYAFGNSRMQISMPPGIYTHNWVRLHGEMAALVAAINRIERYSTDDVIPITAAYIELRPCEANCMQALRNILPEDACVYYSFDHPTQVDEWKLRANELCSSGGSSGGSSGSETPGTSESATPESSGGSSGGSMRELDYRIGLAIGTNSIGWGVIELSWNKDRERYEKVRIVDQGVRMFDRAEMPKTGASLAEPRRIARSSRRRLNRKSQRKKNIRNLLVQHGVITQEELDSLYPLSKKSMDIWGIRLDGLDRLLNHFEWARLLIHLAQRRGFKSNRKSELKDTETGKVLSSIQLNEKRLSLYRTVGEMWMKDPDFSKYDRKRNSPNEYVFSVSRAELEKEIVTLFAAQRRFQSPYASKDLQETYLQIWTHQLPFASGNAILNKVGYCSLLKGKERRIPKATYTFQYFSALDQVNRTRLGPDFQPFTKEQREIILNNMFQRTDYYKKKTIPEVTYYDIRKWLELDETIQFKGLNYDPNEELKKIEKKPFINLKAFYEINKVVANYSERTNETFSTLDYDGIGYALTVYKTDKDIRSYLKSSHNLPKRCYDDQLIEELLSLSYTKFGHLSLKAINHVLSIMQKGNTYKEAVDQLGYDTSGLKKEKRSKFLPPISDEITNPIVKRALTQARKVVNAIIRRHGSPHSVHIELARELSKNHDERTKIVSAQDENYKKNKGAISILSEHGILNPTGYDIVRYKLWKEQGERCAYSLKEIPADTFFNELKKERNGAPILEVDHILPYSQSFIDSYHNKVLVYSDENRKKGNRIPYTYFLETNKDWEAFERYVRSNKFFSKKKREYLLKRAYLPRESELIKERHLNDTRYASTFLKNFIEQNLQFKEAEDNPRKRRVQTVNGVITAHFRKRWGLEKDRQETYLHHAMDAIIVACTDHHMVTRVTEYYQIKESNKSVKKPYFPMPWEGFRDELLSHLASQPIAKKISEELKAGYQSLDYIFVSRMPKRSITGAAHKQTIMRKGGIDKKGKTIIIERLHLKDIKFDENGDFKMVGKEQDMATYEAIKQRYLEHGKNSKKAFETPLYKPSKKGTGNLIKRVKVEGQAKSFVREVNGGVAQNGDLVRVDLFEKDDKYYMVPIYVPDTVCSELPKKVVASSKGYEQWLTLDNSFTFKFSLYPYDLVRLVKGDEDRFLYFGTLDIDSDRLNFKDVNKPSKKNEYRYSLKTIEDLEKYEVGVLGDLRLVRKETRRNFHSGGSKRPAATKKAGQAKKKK

T2: APG30128-L32-nAPG07433.1 (synthetic)
T2 chain: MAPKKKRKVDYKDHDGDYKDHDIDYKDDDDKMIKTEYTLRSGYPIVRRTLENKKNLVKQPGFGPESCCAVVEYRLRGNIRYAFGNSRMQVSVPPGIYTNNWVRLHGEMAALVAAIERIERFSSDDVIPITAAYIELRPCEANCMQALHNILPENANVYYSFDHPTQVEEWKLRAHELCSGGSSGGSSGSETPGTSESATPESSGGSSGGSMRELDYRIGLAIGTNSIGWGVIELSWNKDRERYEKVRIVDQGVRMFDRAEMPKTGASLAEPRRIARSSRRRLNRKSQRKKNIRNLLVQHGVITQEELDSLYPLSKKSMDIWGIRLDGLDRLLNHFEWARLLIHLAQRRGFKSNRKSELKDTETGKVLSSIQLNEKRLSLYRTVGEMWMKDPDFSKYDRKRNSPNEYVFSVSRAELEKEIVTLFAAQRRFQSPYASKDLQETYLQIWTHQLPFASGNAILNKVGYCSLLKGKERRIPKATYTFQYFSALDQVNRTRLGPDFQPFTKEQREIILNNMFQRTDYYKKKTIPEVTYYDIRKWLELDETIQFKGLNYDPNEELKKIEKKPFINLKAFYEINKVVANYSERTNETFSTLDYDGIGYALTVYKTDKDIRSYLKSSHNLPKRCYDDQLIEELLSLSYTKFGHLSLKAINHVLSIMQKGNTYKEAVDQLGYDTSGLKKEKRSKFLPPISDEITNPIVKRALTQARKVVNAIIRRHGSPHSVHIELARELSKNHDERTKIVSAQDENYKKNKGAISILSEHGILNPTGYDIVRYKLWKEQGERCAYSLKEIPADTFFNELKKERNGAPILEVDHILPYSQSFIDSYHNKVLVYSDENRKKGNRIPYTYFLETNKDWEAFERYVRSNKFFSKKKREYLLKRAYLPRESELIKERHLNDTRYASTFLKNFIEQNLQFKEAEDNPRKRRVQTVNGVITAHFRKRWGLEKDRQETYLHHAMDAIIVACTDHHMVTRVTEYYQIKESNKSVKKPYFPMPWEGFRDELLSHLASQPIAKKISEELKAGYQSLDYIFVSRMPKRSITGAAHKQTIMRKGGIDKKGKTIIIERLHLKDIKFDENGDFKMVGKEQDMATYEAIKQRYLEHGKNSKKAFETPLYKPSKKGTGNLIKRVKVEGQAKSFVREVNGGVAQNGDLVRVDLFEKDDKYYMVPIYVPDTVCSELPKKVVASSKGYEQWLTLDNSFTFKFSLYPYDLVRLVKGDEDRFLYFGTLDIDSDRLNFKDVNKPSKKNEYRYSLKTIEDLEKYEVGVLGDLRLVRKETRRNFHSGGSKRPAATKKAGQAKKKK


What was measured:
APG30127-L32-nAPG07433.1 = target: T1, APG30127-L32-nAPG07433.1; experiment: cell_activity; HEK293FT; PAM SEQ 152; details: tags: SV40 NLS, 3xFLAG N-term; nucleoplasmin NLS C-term
Procedure, shortened: (§1)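 Editing read out by next-generation sequencing (MiSeq 2×250) of PCR amplicons spanning the target site, analysed for INDELs or % cytosine conversion per position (position 1 nearest PAM).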

APG30128-L32-nAPG07433.1 = target: T2, APG30128-L32-nAPG07433.1; experiment: cell_activity; HEK293FT; PAM SEQ 152; details: tags: SV40 NLS, 3xFLAG N-term; nucleoplasmin NLS C-term
Procedure, shortened: as §1

Binder	activity (APG30127-L32-nAPG07433.1)	activity (APG30128-L32-nAPG07433.1)
SGN000194 sgRNA ; SGN000194 target (ssRNA ; dsDNA) RNA: GCCGCACAGCAUUCAGGUCGGUCAUAGUUCCAUUAAAGCCAAAAGUGGCUUUGAUGUUUCUAUGAUAAGGGUUUCGACCCGUGGCGUCGGGGAUCGCCUGCCCAUUGAAAUGGGCUUCUCCCCAUUUAUU DNA 1: GCCGCACAGCATTCAGGTCG DNA 2: CGACCTGAATGCTGTGCGGC	9.53 % mutated reads	
SGN000930 sgRNA ; SGN000930 target (ssRNA ; dsDNA) RNA: GAACAACUCAAAUGGAAAUGAAUAUGUCAUAGUUCCAUGAAAGCCAAAAGUGGCUUUGAUGUUUCUAUGAUAAGGGUUUCGGCCCGUGGCGUCGGGGAUCGCCUGCCCAUUCCGAUGGGCUUCUCCCCAUUUAUU DNA 1: GAACAACTCAAATGGAAATGAATAT DNA 2: ATATTCATTTCCATTTGAGTTGTTC		2.03 % mutated reads
